{"source": "a protein production outcome set (Wang et al. 2014)", "test": "label from the status in PepcDB records", "data": [{"sequence": "MKVFIIGAAGGIGNRLSSLLHARGDAVSGMHRNLEQASKITDTGATAVLGDLIHNSTEELAELFRGHDAIVFSAGAHGTGQENTTLIDGAGLRKAADAASAANVSRFILVSAFPESSRGENTTENFEHYMKVKKSADVYLSHTDLDWVIVRPGVLQDEAGDGLVTAGLAINYGNVARDNVAAFIDEALHQPQLSKIIVELTDGSTPVAEAVERLIKLEHHHHHH", "values": [{"measurement": "protein production", "value": "not failed"}]}, {"sequence": "PSNAMKQAWLQISQDNKLMSCNDTSKANALLDMVTQGLNPAKNQCYFIPYGNKMQLQRSYHGNVMMLKRDAGAQDVVAQVIYKGDTFKQEMGETGRIKAIKHEQDFFNIDKENIIGAYCTIVFNDGRDNYIEVMTIEQIKQAWMQSSMIKDEKALQNSKTHNNFKEEMAKKTVINRAAKRYINTSTDSNLFKYAQESEQRQRKEVLDAEVEENANQE", "values": [{"measurement": "protein production", "value": "not failed"}]}, {"sequence": "MDTVTKLSIIIPAWNEETGIARTLETLLALTAGRGDTEIIVSVSGNDRTKAIARTFPVVVCHSEKGRAVQMNAGAKLATGSILYFLHADTTPPPSFCDDIFSAIERGARAGCFRMTFDDPDWLMQLYGWFTQFPLPVCRGGDQSLFITKELFGQIGGFDERLQIMEDIEIIDRLQRHAGFHILDSTVTTSARKYHTNGTVRLQAIFGTIHLMYALGFSQKNIVAFYRDSIRLEHHHHHH", "values": [{"measurement": "protein production", "value": "not failed"}]}, {"sequence": "MPSEAKYTWDQELNEINIQFPVTGDADSSAIKIRIVGKKICVKNQGEIVIDGELLHEVDVSSLWWVINGDVVDVNVTKKRNEWWDSLLVGSESVDVQKLAENKHADMSMLDAEAREVVEKMMHNTSGKDSE", "values": [{"measurement": "protein production", "value": "not failed"}]}, {"sequence": "MLAGATLAIGVIAPQVLPATAHADEQTGESTVNLRILETSDIHVNLMNYDYYQTKTDNKVGLVQTATLVNKAREEAKNSVLFDDGDALQGTPLGDYVANKINDPKKPVDPSYTHPLYRLMNLMKYDVISLGNHEFNYGLDYLNKVISKTEFPVINSNVYKDDKDNNEENDQNYFKPYHVFEKEVEDESGQKQKVKIGVMGFVPPQVMNWDKANLEGKVKAKDIVETAKKMVPKMKAEGADVIVALAHSGVDKSGYNVGMENASYYLTEVPGVDAVLMGHSHTEVKDVFNGVPVVMPGVFGSNLGIIDMQLKKVNGKWEVQKEQSKPQLRPIADSKGNPLVQSDQHLVNEIKDDHQATIDYVNT", "values": [{"measurement": "protein production", "value": "failed"}]}, {"sequence": "MSLKITDVDVWVVNLPLVNPFTSSFETKTGETRTVVRVRTDSGVEGWGETMWGAPVAAIVRRMAPDLIGTSPFALEAFHRKQHMVPFFYGYLGYAAIAAVDVACWDAMGKATGQSVTDLLGGAVRDEVPITALITRADAPGATPADLPKAMAEHAVRVVEEGGFDAVKLKGTTDCAGDVAILRAVREALPGVNLRVDPNAAWSVPDSVRAGIALEELDLEYLEDPCVGIEGMAQVKAKVRIPLCTNMCVVRFEDFAPAMRLNAVDVIHGDVYKWGGIAATKALAAHCETFGLGMNLHSGGELGIATAAHLAVVSSTPVLSRAIDSMYYLHADDIIEPLHLENGRLRVPSGPGLGVSVDEDKLRHYAGVNERDGDLTGEGHHHHHH", "values": [{"measurement": "protein production", "value": "not failed"}]}, {"sequence": "MKFSIIVPSYNSEKYIAELLNSLQNQSYDKKDFEVILVDDCSSDNTLNVVEAYKNKLNLIIKQLDTNSGGPGKPRNTALQLAQGEYVFFVDSDDYINKDTLKDVSKFVDQNHADVVLVKMEGVNGRGVPKSMFKETSDAVTLANSRIIYTLSPTKFYRTSLLRDHAIEFPEDLRSAEDQLFTMKAYVNAKRIAVLADKPYYYATKREGEHMSSAYVSPEDFYKVMSLITEEILNSPLENKNEVLGYFIDRHFSFSRTNNFSLKIADDKKEAWMDALGDFIQKVPTVVDELVNDSFKPLLHYARLKDMKHYQMVEESYKNGKFHSYSAQEGTLKIQFDEGEPYFVFKKLVKPDIRMSHFEFNDQGFELELEFISSIINPNHVASMIQLKLLSRNKKEFIYIPLTMNDQTRFKFKADLNDLMPYLIKEKVWDAHLEMRVDNMTIEKRIGNKRVKYPYSKETSTITQYNNQYYRFTPYFTKDFDNLSFYITSNKLNEMLAVEIKDKQTIQLRSLEFNYILSEGMTAVILPHMFTYGYLTSVTTKDTLTYHLSVGEKVKDKDLKKNFKIETPHLVLKYLEHHHHHH", "values": [{"measurement": "protein production", "value": "not failed"}]}, {"sequence": "LVKETACAVVDKLKSGEVTPIEVLDVLEERIAEVDGAINALPTLCFDRARGHAAELMKKPPAERGLLAGLPVPIKDLTAVAGVLTTQGSPIYKDNVPARSDLMVEHLEGNGGVVYAKSNTPEFGAGANTFNEVFGATRNPWDLSRSAAGSSGGAAAALASGTAWLAHGSDMGGSLRNPASFCGIVGLRPSFGRVAHTPAAKIDRNLGVQGPMARNVEDVALLLDAMSGEYAADPLSIPSPATSFLAAARSRQKPLRVAYSPDLGITPVDPEVAAVTRKAAERFAEAGVIVEQAQPDLSEAHECFQALRAFDFAISKADLLRTKRDLLKPEVIWNIEQGLKLSVDDLAKAEAQRVAMTARTIEFFKTYDLLLCPATITAPFPVEQRYLAECNGHTFGNYVEWLGIVYAITLVCCPALSLPCGFTATGLPIGLQMVARPRNEAGLLAGAALLEDILGLKSTTP", "values": [{"measurement": "protein production", "value": "failed"}]}, {"sequence": "MARPHFALTSVFLASSVSLSAFGFSLPARAQSEDVAQKCQQPIKSVEASFAACTAAIDTGALSGKALAGAYIKRGFLRTRQRDLVGAEADLDAAIKANPDAADAYTTRANFWNVSGKPERALADADQAIKLDPNLPLAHFVRGSAELKLGHDDRAIADYSRAIELRPKESGEVYAVRGFAYHRKGDDIRAVADYTEALKAAPEDVGTLLNRGDARRNLRDTAGAAADYSEAIKLAPGNAGGFKGRGFIRLLTQDTGGAVADFTEAIRLSPSESGLYLNRASALGLQNQSLLALADEDMAIRLEPQHPLAYVNRAETLKLLGDKVAARASVTKALQLAPGFPPAVEVLKKLGEPKRSKEPSSEAAQEAYRRCTFPVTDLGPGEEGIKQIIKVCTLLVTAQGGSDANRALVHLQRGSMYRRQGDYQHALIDFSESLRYDPESALAYTGRGNAYRGLKLLDQALADHTEAIRLDPKYATAYNNRGNVWRDKNDLAKAIADFDRAIAISPNYAMAYFNRGNSRLESGDKEGAVADFQQTVKLSPQFKEAAERLQELGVRM", "values": [{"measurement": "protein production", "value": "failed"}]}, {"sequence": "MAIAPTIQPLPAPWVARMAAGEVIDSLAAVVRELCENSLDAGTQRLVIDLWPEQWRVRVADDGMGLSLENLQLAALAHTSSKLSPDRFTAEQLGFRGEALHSLARLGRLTIASRTADAAAGWQISYDIGGQPQVATPIAIAPGCIVEVQQLFQDWLERRQSQPSPAQQLRAVQQQIQNLVLAHPSITVQVTQNDRPWLAFAPVHHPQERLLQLLPNTSPADWRSQSLDLGSEGQLQVVVGLPDRCHRRRPDWVKVAVNGRVVRVSELEQAMIGALHRSLPRDRFPVVFAHLQVPPSQVDWHRHPAKAELFLQDLPVWCERIQEAIAQTLPLDPAEEIELPASTALLRVAETTGSYSESPSHLRAIAQVLNTYVLAEQGDSLWLIEQHIAHERVLFEQLQDDWQLVACQQPILLSKLSLEQRLQLDRLGITAEDFGEDLWAIRHIPAALAQREDLVEALLELSRGWDLSAAQAAIACRTAIRNGTLLYPEEQQTLIDRWQHCRQPRTCPHGRPIALVLPETSLARYFRRQWMIGRSHGLGDP", "values": [{"measurement": "protein production", "value": "failed"}]}, {"sequence": "MALSDTKLRKIKAPYNGEAELADRDGLSVRVSPKALITFNYRFRWEGKQQRIKLGRYPGLKLIDARKKVNEYRHNLDEGLDPRVVQNESRSHNLFGDMCEAFMTKYVMTELRPKTQTLYKSTFNKYVTPYKNIDIERYKYTDWIAYFDWVKKESSSANAGSVLKRFKAVANWAKARGQIKHSHLIDIPIKAIGSHQQKRERCLEWDEVIGLWRQIESSKSTPQCKTCIQLLLLTGARNAEIREARRDEFDLDKNIWLLPPERSKTKKQVRRPLSTGVIELINKLDLIYGQDREYLIAGDIKGKPLTTHAVNRFVQRMNNHLKYPHFVPHDFRRTIVTRLSEHKVELHVTEKMLGHELGGILTRYNKHDWIDEQREAYELYWQKVTLLLKN", "values": [{"measurement": "protein production", "value": "failed"}]}, {"sequence": "MGGRIASLLLDELHASTTVAAGVCLGYPFHPLGKPAQLRTHHLIDLSAPCLIFQGERDAMGRQDEVEVYSMSSAVTLQWIPDGDHSFSPRKRSGRTEEQNLCLAVQHVHSFLDSV", "values": [{"measurement": "protein production", "value": "failed"}]}, {"sequence": "MKKSLCLSFFLTFSNPLQALVIELLEEIKTSPHKGTFKAKVLDSKKPRQVLGVYNISPHKKLTLTITHISTAIVYQPLDEKLSLETTLNPNRPTIPRNTQIVFSSKELKESHPHQMPSLNAPMQKPQNKPHSSQQPSQNFSYPEPKLGSKNSKNSLLQPLAIPSKISPTNETQTPTNDTKPPLKHSSEDQESNLFITPPTEKTLPNNTSNADISENNESNENKDNVEKQAIRDANIKEFACGKWVYDDENLQAYRPSILKRVDEDKQTATDITPCDYSTAENKSGKIITPYTKISVHKTEPLEEPQTFEAKNNFAILQARSSTEKCKRARARKDGTTRQCYLIEEPLKQAWESEYEITTQLVKAIYERPKQDDQVEPTFYETSELAYSSTRKSEITHNELNLNEKFMEFVEVYEGHYLNDIIKESSEYKEWVKNHVRFKEGVCMALEIEEQPRAKSTPLSIENSRVVCVKKGNYLFNEV", "values": [{"measurement": "protein production", "value": "failed"}]}, {"sequence": "MEPANMTVAEYLNYWLDTYPKNNVAPSTYRRYTEFAAHIKTHIGGIMMPKLKPAHIQSFYSSLLEKNLSKSTVLKIHRMLHLALKHAVNWQIIISNPTDAVTLEHHHHHH", "values": [{"measurement": "protein production", "value": "failed"}]}, {"sequence": "KTNFKIVLKEDSELLQEVVVTGYGGKVSRSKLTNSISTVNPQMLDKGIYTNPSQALSGSVPGLKVSLTSGNPTSSPKIILRGGTNFDGSGGPLVVVDGQLRDNFDDINPQDIASMDVLKDAGATAIYGARASNGVILITTKSGKAGH", "values": [{"measurement": "protein production", "value": "failed"}]}, {"sequence": "MEQYSEACIEACIDCMKACNHCFTKCLEESVQHHLSGCIRLDRECADICALAVKAMQTDSPFMKEICALCADICEACGTECGKHDHDHCQACAKACFTCAEQCRSMAALEHHHHHH", "values": [{"measurement": "protein production", "value": "failed"}]}, {"sequence": "MPHRKNTFSSWRSRLAQKAVHAGWAWVQRTGSVTAAHPGRFRFGALGTGTRLAFPLGTVFGEPWIQVGAHCIIGEQVTLTAGLMPDLDLGPEPILRIGDGVVLGRGSHVIADTTVTIGSDCYFGPYVYVTSTNHSYDDPHQPIGKQWPRMDPVEIGPGCWIGTGAVILPGARIGRNVVVAAGAVVRGAVPDHAVVAGAPARVVRRWTPAEGWQPPLRTPAPVPIPDGITPGQLRELSKLDDEAVARLAELDDPERAAGRLAEPAAEG", "values": [{"measurement": "protein production", "value": "failed"}]}, {"sequence": "MKLAASLNRLSPKRLFRTKSKASVSRSEPSSFSSNASSSSSDGSYGNLKQGPTATPISVLPQNSGDFYTELVQAFKLIDRDDDGVVSRGDLAALISRLSHEPPSQEEVSLMLREVDGGDGGCISLEDLASRVAGTSGEGSVETEELREVFEIFDVDRNGKISAEELHRVFGVIGDERCTLEECMRMIATVDGNGDGFVCFDDFCRMMVPAMNDHHH", "values": [{"measurement": "protein production", "value": "failed"}]}, {"sequence": "MTAQKMSAQEIIAFIGNAEKKTNVKVTFEGALAAALPENVVKLGNVLFGDWKDIEPLLANLTENKDYVVEQDGRNSAVPLLDK", "values": [{"measurement": "protein production", "value": "not failed"}]}, {"sequence": "MSLDKIRYGIMSTAQIVPRFVAGLRESAQAEVRGIASRRLENAQKMAKELAIPVAYGSYEELCKDETIDIIYIPTYNQGHYSAAKLALSQGKPVLLEKPFTLNAAEAEELFAIAQEQGVFLMEAQKSVFLPITQKVKATIQEGGLGEILWVQSVTAYPNVDHIPWFYSREAGGGALHGSGSYPLQYLQYVLGKEIQEVTGTATYQQGATDSQCNLALKFAEGTLGNIFINVGLKIPSEMTICGTKGQIVIPNFWKTDCAYYTDAQGNTVKWSEQFTSEFTYEINHVNQCLQDKKLTSPVMTKELTIATVKIVESFYQEWFDNEGHHHHHH", "values": [{"measurement": "protein production", "value": "not failed"}]}, {"sequence": "MRIFKALLKMEFLLTKRQLANLIMAIGMPVAFFLFFSGFMGEGLTKAIEAIYVRNYMITMAGFSSLSFAFFTFPFSMKDDQLSNRMQLLRHSPVPMWQYYLAKIIRILFYYCLAITVVFLTGHILRQVSMPIEQWMQSFLLLLGGATCFIPFGLLVSYFKNTELMSMVANICYMSLAVLGGMWMPITMFPKWLQALSKLTPTYHLTQVILSPFANSFAGFSLIILIGYGIIMLVIAYLLSQKRHSI", "values": [{"measurement": "protein production", "value": "failed"}]}]}
